Six proteins from PMC4769167 (eLife, 2016) can be followed below.

Substitutions are numbered along the chain they refer to. Numbers in names are those of the source.

In general, stoichiometry N refers to the number of molecules, sites or subunits per partner or assembly.

The chains are these.
B1: D417C ClC-ec1 (cysteine-less C85A/C302A/C347S background, called the "WT background") (natural protein, E. coli)
chain: MKTDTPSLETPQAARLRRRQLIRQLLERDKTPLAILFMAAVVGTLVGLAAVAFDKGVAWLQNQRMGALVHTADNYPLLLTVAFLASAVLAMFGYFLVRKYAPEAGGSGIPEIEGALEDQRPVRWWRVLPVKFFGGLGTLGGGMVLGREGPTVQIGGNIGRMVLDIFRLKGDEARHTLLATGAAAGLAAAFNAPLAGILFIIEEMRPQFRYTLISIKAVFIGVIMSTIMYRIFNHEVALIDVGKLSDAPLNTLWLYLILGIIFGIFGPIFNKWVLGMQDLLHRVHGGNITKWVLMGGAIGGLAGLLGFVAPATSGGGFNLIPIATAGNFSMGMLVFIFVARVITTLLSFSSGAPGGIFAPMLALGTVLGTAFGMVAVELFPQYHLEAGTFAIAGMGALLAASIRAPLTGIILVLEMTCNYQLILPMIITGLGATLLAQFTGGKPLYSAILARTLAKQEAEQLARSK
notes: ClC-ec1, prokaryotic CLC Cl-/H+ exchange transporter, homodimer; D417C in the cysteine-less background C85A/C302A/C347S; E. coli is named only in the keywords; also called D417C/WT; source: expressed and purified as in Accardi and Miller, 2004, final step Superdex 200 size exclusion
B2: D417C/A404L ClC-ec1 (cysteine-less background) (natural protein, E. coli)
chain: B1 chain with A404L
notes: ClC-ec1; D417C with A404L in the cysteine-less background C85A/C302A/C347S; source: expressed and purified as in Accardi and Miller, 2004, final step Superdex 200 size exclusion
B3: D417C/L361A ClC-ec1 (cysteine-less background) (natural protein, E. coli)
chain: B1 chain with L361A
notes: ClC-ec1; D417C with the Helix-N mutation L361A in the cysteine-less background C85A/C302A/C347S; also called L361A (Helix N); source: expressed and purified as in Accardi and Miller, 2004, final step Superdex 200 size exclusion
B4: D417C/E148A ClC-ec1 (cysteine-less background) (natural protein, E. coli)
chain: B1 chain with E148A
notes: ClC-ec1; D417C with E148A in the cysteine-less background C85A/C302A/C347S; also called D417C in the E148A mutant background; source: expressed and purified as in Accardi and Miller, 2004, final step Superdex 200 size exclusion
B5: D417C/F357A ClC-ec1 (cysteine-less background) (natural protein, E. coli)
chain: B1 chain with F357A
notes: ClC-ec1; D417C with the Helix-N mutation F357A in the cysteine-less background C85A/C302A/C347S; also called F357A (Helix N); source: expressed and purified as in Accardi and Miller, 2004, final step Superdex 200 size exclusion
B6: Y419C ClC-ec1 (WT ClC-ec1 background) (natural protein, E. coli)
chain: B1 chain with A85C, A302C, S347C, C417D, Y419C
notes: ClC-ec1, prokaryotic CLC Cl-/H+ exchange transporter, homodimer; Y419C in the WT (native cysteines kept) background; source: expressed and purified as in Accardi and Miller, 2004, final step Superdex 200 size exclusion

The first data set deals with the molecule itself. Kind of data set: SEC; Superdex 200 gel filtration, before and after treatment with CuP. (In gel filtration, larger molecules generally elute earlier.)
As to B1, the “stoichiometry N” value came out at 2.

Another data set concerns the molecule itself. Kind of data set: cross-linking; inter-subunit disulfide between introduced cysteines, spontaneous (purified without reductant) or induced with copper-phenanthroline (CuP) for 1 h at room temperature, 0.2 mg/mL protein in Buffer A (150 mM NaCl, 10 mM HEPES pH 7.5, 5 mM DM); non-reducing SDS-PAGE, Coomassie, monomer and dimer bands quantified.
Take B2: the binding result is recorded as “binds”.
Still for that read-out and setting: for B3 the value was “binds”.
On to B4, for which the binding result was “binds”.
Still for that read-out and setting: under B5 stands “binds”; under B6, “binds”.
